Experimental data: patent publication US20230002480A1

Assays:
Test in all cases: cell-based or functional assay
[1] = target: HIV-1 Env of pseudovirus C4118.c09 (HIV-1)
[2] = target: HIV-1 Env of pseudovirus T250-4 (HIV-1)
[3] = target: HIV-1 Env of pseudovirus 235-47 (HIV-1)
[4] = target: HIV-1 Env of pseudovirus 0815.v3.c3 (HIV-1)
[5] = target: HIV-1 Env of pseudovirus C2101.c01 (HIV-1)
[6] = target: HIV-1 Env of pseudovirus R1166.c01 (HIV-1)
[7] = target: HIV-1 Env of pseudovirus 191955_A11 (HIV-1)
[8] = target: HIV-1 Env of pseudovirus A07412M1.vrc12 (HIV-1)
[9] = target: HIV-1 Env of pseudovirus BJOX009000.02.4 (HIV-1)
[10] = target: HIV-1 Env of pseudovirus X2088_c9 (HIV-1)
[11] = target: HIV-1 Env of pseudovirus R3265.c06 (HIV-1)
[12] = target: HIV-1 Env of pseudovirus 3016.v5.c45 (HIV-1)
[13] = target: HIV-1 Env of pseudovirus 191084 B7-19 (HIV-1)
[14] = target: HIV-1 Env of pseudovirus TRO.11 (HIV-1)
[15] = target: HIV-1 Env of pseudovirus BF1266.431a (HIV-1)
[16] = target: HIV-1 Env of pseudovirus QH0692.42 (HIV-1)
[17] = target: HIV-1 Env of pseudovirus 62357_14_D3_4589 (HIV-1)
[18] = target: HIV-1 Env of pseudovirus 249M B10 (HIV-1)
[19] = target: HIV-1 Env of pseudovirus CNE30 (HIV-1)
[20] = target: HIV-1 Env of pseudovirus Ce2060_G9 (HIV-1)
[21] = target: HIV-1 Env of pseudovirus RHPA4259.7 (HIV-1)
[22] = target: HIV-1 Env of pseudovirus 1394C9G1(Rev-) (HIV-1)
[23] = target: HIV-1 Env of pseudovirus 6535.3 (HIV-1)
[24] = target: HIV-1 Env of pseudovirus 1054_07_TC4_1499 (HIV-1)
[25] = target: HIV-1 Env of pseudovirus 7030102001E5(Rev-) (HIV-1)
[26] = target: HIV-1 Env of pseudovirus HIV-16845-2.22 (HIV-1)
[27] = target: HIV-1 Env of pseudovirus WEAU_d15_410_787 (HIV-1)
[28] = target: HIV-1 Env of pseudovirus CNE17 (HIV-1)
[29] = target: HIV-1 Env of pseudovirus Ce1172_H1 (HIV-1)
[30] = target: HIV-1 Env of pseudovirus 1006_11_C3_1601 (HIV-1)
[31] = target: HIV-1 Env of pseudovirus Q259.d2.17 (HIV-1)
[32] = target: HIV-1 Env of pseudovirus Ce704809221_1B3 (HIV-1)
[33] = target: HIV-1 Env of pseudovirus CNE58 (HIV-1)
[34] = target: HIV-1 Env of pseudovirus Du172.17 (HIV-1)
[35] = target: HIV-1 Env of pseudovirus WITO4160.33 (HIV-1)
[36] = target: HIV-1 Env of pseudovirus 6244_13_B5_4576 (HIV-1)
[37] = target: HIV-1 Env of pseudovirus CAP45.2.00.G3 (HIV-1)

## N49P11 (antibody)
[1]
  IC50: 0.094 µg/mL
  IC80: 0.346 µg/mL
  MPI: 100
[2]
  IC50: 6.28 µg/mL
  IC80: 25.6 µg/mL
  MPI: 100
[3]
  IC50: 3.88 µg/mL
  IC80: 21.2 µg/mL
  MPI: 100
[4]
  IC50: 0.106 µg/mL
  IC80: 0.372 µg/mL
  MPI: 100
[5]
  IC50: 0.084 µg/mL
  IC80: 0.505 µg/mL
  MPI: 100
[6]
  IC50: 0.06 µg/mL
  IC80: 0.336 µg/mL
  MPI: 100
[7]
  IC50: 2.74 µg/mL
  IC80: 15.3 µg/mL
  MPI: 100
[8]
  IC50: 2.52 µg/mL
  IC80: 12.9 µg/mL
  MPI: 100
[9]
  IC50: 2.84 µg/mL
  IC80: 10.6 µg/mL
  MPI: 100
[10]
  IC50: 6.82 µg/mL
  IC80: 22 µg/mL
  MPI: 100
[11]
  IC50: 0.161 µg/mL
  IC80: 0.971 µg/mL
  MPI: 100
[12]
  IC50: 8.75 µg/mL
  IC80: 21.4 µg/mL
  MPI: 100
[13]
  IC50: 0.065 µg/mL
  IC80: 0.276 µg/mL
  MPI: 100

## VRC07 (antibody)
[14]
  neutralization IC50: 0.132 µg/mL
  neutralization IC80: 0.456 µg/mL
[15]
  neutralization IC50: 0.032 µg/mL
  neutralization IC80: 0.117 µg/mL
[1]
  IC50, titer in TZM.bl cells: 0.121 µg/mL
  IC80, titer in TZM.bl cells: 0.444 µg/mL
[2]
  IC50, titer in TZM.bl cells: > 50 µg/mL
  IC80, titer in TZM.bl cells: > 50 µg/mL
[16]
  neutralization IC50: 0.5 µg/mL
  neutralization IC80: 1.86 µg/mL
[3]
  IC50, titer in TZM.bl cells: 0.024 µg/mL
  IC80, titer in TZM.bl cells: 0.075 µg/mL
[4]
  IC50, titer in TZM.bl cells: 0.015 µg/mL
  IC80, titer in TZM.bl cells: 0.051 µg/mL
[17]
  neutralization IC50: 0.075 µg/mL
  neutralization IC80: 0.256 µg/mL
[18]
  neutralization IC50: 0.052 µg/mL
  neutralization IC80: 0.204 µg/mL
[19]
  neutralization IC50: 0.326 µg/mL
  neutralization IC80: 1.08 µg/mL
[20]
  neutralization IC50: 0.085 µg/mL
  neutralization IC80: 0.422 µg/mL
[21]
  neutralization IC50: 0.017 µg/mL
  neutralization IC80: 0.048 µg/mL
[5]
  IC50, titer in TZM.bl cells: 0.238 µg/mL
  IC80, titer in TZM.bl cells: 1.4 µg/mL
[22]
  neutralization IC50: 0.112 µg/mL
  neutralization IC80: 0.368 µg/mL
[23]
  neutralization IC50: 0.169 µg/mL
  neutralization IC80: 0.517 µg/mL
[24]
  neutralization IC50: 0.239 µg/mL
  neutralization IC80: 1.46 µg/mL
[25]
  neutralization IC50: 0.205 µg/mL
  neutralization IC80: 0.911 µg/mL
[26]
  neutralization IC50: 1.21 µg/mL
  neutralization IC80: 6.15 µg/mL
[27]
  neutralization IC50: 0.034 µg/mL
  neutralization IC80: 0.115 µg/mL
[6]
  IC50, titer in TZM.bl cells: 0.81 µg/mL
  IC80, titer in TZM.bl cells: 3.17 µg/mL
[7]
  neutralization IC50: 0.978 µg/mL
  neutralization IC80: 4.82 µg/mL
[8]
  IC50, titer in TZM.bl cells: 0.11 µg/mL
  IC80, titer in TZM.bl cells: 0.353 µg/mL
[28]
  neutralization IC50: 0.136 µg/mL
  neutralization IC80: 0.651 µg/mL
[29]
  neutralization IC50: > 50 µg/mL
  neutralization IC80: > 50 µg/mL
[30]
  neutralization IC50: 0.015 µg/mL
  neutralization IC80: 0.046 µg/mL
[31]
  neutralization IC50: 0.024 µg/mL
  neutralization IC80: 0.1 µg/mL
[32]
  neutralization IC50: 0.273 µg/mL
  neutralization IC80: 1.14 µg/mL
[33]
  neutralization IC50: 0.11 µg/mL
  neutralization IC80: 0.298 µg/mL
[9]
  IC50, titer in TZM.bl cells: 0.806 µg/mL
  IC80, titer in TZM.bl cells: 2.9 µg/mL
[10]
  IC50, titer in TZM.bl cells: > 50 µg/mL
  IC80, titer in TZM.bl cells: > 50 µg/mL
[34]
  neutralization IC50: 0.796 µg/mL
  neutralization IC80: 3.66 µg/mL
[35]
  neutralization IC50: 0.042 µg/mL
  neutralization IC80: 0.193 µg/mL
[12]
  IC50, titer in TZM.bl cells: 0.095 µg/mL
  IC80, titer in TZM.bl cells: 0.392 µg/mL
[13]
  neutralization IC50: 0.061 µg/mL
  neutralization IC80: 0.209 µg/mL
[36]
  neutralization IC50: 0.065 µg/mL
  neutralization IC80: 0.23 µg/mL
[37]
  neutralization IC50: 0.355 µg/mL
  neutralization IC80: 3.09 µg/mL
